Measurements published in PMC2171850.

Target: Hrp65, endogenous in C. tentans tissue culture cells (C. tentans (endogenous in C. tentans tissue culture cells))
Assay: co-IP

percent of the association that is RNase-sensitive: 50%
Substance: Hrp59, endogenous in C. tentans tissue culture cells (natural protein)
